B1: DPP8: novel human dipeptidyl peptidase, amino acid sequence SEQ ID NO:1, 882 amino acids (protein, listed as Homo Sapiens)
chain: MAAAMETEQLGVEIFETADCEENIESQDRPKLEPFYVERYSWSQLKKLLADTRKYHGYMMAKAPHDFMFVKRNDPDGPHSDRIYYLAMSGENRENTLFYSEIPKTINRAAVLMLSWKPLLDLFQATLDYGMYSREEELLRERKRIGTVGIASYDYHQGSGTFLFQAGSGIYHVKDGGPQGFTQQPLRPNLVETSCPNIRMDPKLCPADPDWIAFIHSNDIWISNIVTREERRLTYVHNELANMEEDARSAGVATFVLQEEFDRYSGYWWCPKAETTPSGGKILRILYEENDESEVEIIHVTSPMLETRRADSFRYPKTGTANPKVTFKMSEIMIDAEGRIIDVIDKELIQPFEILFEGVEYIARAGWTPEGKYAWSILLDRSQTRLQIVLISPELFIPVEDDVMERQRLIESVPDSVTPLIIYEETTDIWINIHDIFHVFPQSHEEEIEFIFASECKTGFRHLYKITSILKESKYKRSSGGLPAPSDFKCPIKEEIAITSGEWEVLGRHGSNIQVDEVRRLVYFEGTKDSPLEHHLYVVSYVNPGEVTRLTDRGYSHSCCISQHCDFFISKYSNQKNPHCVSLYKLSSPEDDPTCKTKEFWATILDSAGPLPDYTPPEIFSFESTTGFTLYGMLYKPHDLQPGKKYPTVLFIYGGPQVQLVNNRFKGVKYFRLNTLASLGYVVVVIDNRGSCHRGLKFEGAFKYKMGQIEIDDQVEGLQYLASRYDFIDLDRVGIHGWSYGGYLSLMALMQRSDIFRVAIAGAPVTLWIFYDTGYTERYMGHPDQNEQGYYLGSVAMQAEKFPSEPNRLLLLHGFLDENVHFAHTSILLSFLVRAGKPYDLQIYPQERHSIRVPESGEHYELHLLHYLQENLGSRIAALKVI
B2: DPPIV: dipeptidyl peptidase IV, comparator enzyme (protein)
chain: MKTPWKVLLGLLGAAALVTIITVPVVLLNKGTDDATADSRKTYTLTDYLKNTYRLKLYSLRWISDHEYLYKQENNILVFNAEYGNSSVFLENSTFDEFGHSINDYSISPDGQFILLEYNYVKQWRHSYTASYDIYDLNKRQLITEERIPNNTQWVTWSPVGHKLAYVWNNDIYVKIEPNLPSYRITWTGKEDIIYNGITDWVYEEEVFSAYSALWWSPNGTFLAYAQFNDTEVPLIEYSFYSDESLQYPKTVRVPYPKAGAVNPTVKFFVVNTDSLSSVTNATSIQITAPASMLIGDHYLCDVTWATQERISLQWLRRIQNYSVMDICDYDESSGRWNCLVARQHIEMSTTGWVGRFRPSEPHFTLDGNSFYKIISNEEGYRHICYFQIDKKDCTFITKGTWEVIGIEALTSDYLYYISNEYKGMPGGRNLYKIQLSDYTKVTCLSCELNPERCQYYSVSFSKEAKYYQLRCSGPGLPLYTLHSSVNDKGLRVLEDNSALDKMLQNVQMPSKKLDFIILNETKFWYQMILPPHFDKSKKYPLLLDVYAGPCSQKADTVFRLNWATYLASTENIIVASFDGRGSGYQGDKIMHAINRRLGTFEVEDQIEAARQFSKMGFVDNKRIAIWGWSYGGYVTSMVLGSGSGVFKCGIAVAPVSRWEYYDSVYTERYMGLPTPEDNLDHYRNSTVMSRAENFKQVEYLLIHGTADDNVHFQQSAQISKALVDVGVDFQAMWYTDEDHGIASSTAHQHIYTHMSHFIKQCFSLP
modifications: left off: small tags and cut ends
notes: dipeptidyl peptidase IV, comparator enzyme

Experiments:
DPP8 = molecular target: T1, DPP8 (Homo sapiens, UniProt Q6V1X1); experiment: pH-dependence of DPP8 enzyme activity; type: biochemical
T1 construct: the full length DPP8 cDNA of 3.1 kb was cloned into the Xba I site of pcDNA3.1A/V5/His expression vector; expressed in transfected cells; host or cells: COS-7 (monkey kidney fibroblast) cells; clarified sonicated cell extract
Description: FIG. 7. DPP8 enzyme activity. (A) pH-dependence of DPP8 enzyme activity. (B) DPP8 and DPPIV enzyme kinetics. Means +/− SD of absorbance change per minute, multiplied by 1000 are shown. Curve fitting assumed Michaelis-Menten kinetics.
Enzyme assays were performed as described previously. Either clarified cell extract from 1×10^4 sonicated COS-7 cells or purified protein derived from 1×10^5 cells was incubated with substrate in 70 μL phosphate buffer, pH 7.4, for 30 min at 37° C., except where otherwise indicated. The specific DPPIV substrates, Gly-Pro-toluenesulfonate, H-Gly-Pro-p-nitroanilide (NA)/HCl (Sigma, St Louis, Mo., USA) and Gly-Pro-7-amino-4-trifluromethylcoumarin (Calbiochem, San Diego, Calif., USA) were tested. Other substrates tested were H-Ala-Pro-pNA/HCl, H-Arg-Pro-pNA acetate salt, H-Lys-Ala-pNA.2HCl, H-Asp-Pro-pNA, H-Ala-Ala-pNA/HCl, H-Ala-Ala-Pro-pNA/HCl, H-Ala-Ala-Phe-pNA, succinyl-Ala-Pro-pNA, H-Ala-Phe-Pro-pNA and Z-Ala-Pro-p-NA from Bachem (Switzerland). H-Ala-Pro-4-methoxyβNA/HCl, Z-Lys-Pro-4-methoxyβNAformate salt, H-Lys-Pro-4-methoxyβNA/HCl, Z-Ala-Pro-4-methoxyβNA, H-Gly-Pro-βNA and H-His-Ser-4-methoxyβNAacetate salt (Bachem) were tested for their ability to stain unfixed transfected cells. All inhibitors were (see Table 2) incubated with each purified enzyme in phosphate buffer, pH 7.4, for 15 min before the addition of substrate. […]

DPPIV = DPPIV (Homo sapiens, UniProt P27487); settings: references [43,44]; cited from earlier work

Row | Molecule | pH optimum of enzyme activity (DPP8) | pH optimum of enzyme activity (DPPIV)
1 | B1 | 7.4 | 
2 | B2 |  | 7.8
